These are literature values, as cited in PMC8035261.

One series concerns the target SV2 (UniProt Q9Z2I6).
Another series has as its target FGFR3 (Homo sapiens) (UniProt P22607).
Chain of UniProt P22607 (P22607 23-806): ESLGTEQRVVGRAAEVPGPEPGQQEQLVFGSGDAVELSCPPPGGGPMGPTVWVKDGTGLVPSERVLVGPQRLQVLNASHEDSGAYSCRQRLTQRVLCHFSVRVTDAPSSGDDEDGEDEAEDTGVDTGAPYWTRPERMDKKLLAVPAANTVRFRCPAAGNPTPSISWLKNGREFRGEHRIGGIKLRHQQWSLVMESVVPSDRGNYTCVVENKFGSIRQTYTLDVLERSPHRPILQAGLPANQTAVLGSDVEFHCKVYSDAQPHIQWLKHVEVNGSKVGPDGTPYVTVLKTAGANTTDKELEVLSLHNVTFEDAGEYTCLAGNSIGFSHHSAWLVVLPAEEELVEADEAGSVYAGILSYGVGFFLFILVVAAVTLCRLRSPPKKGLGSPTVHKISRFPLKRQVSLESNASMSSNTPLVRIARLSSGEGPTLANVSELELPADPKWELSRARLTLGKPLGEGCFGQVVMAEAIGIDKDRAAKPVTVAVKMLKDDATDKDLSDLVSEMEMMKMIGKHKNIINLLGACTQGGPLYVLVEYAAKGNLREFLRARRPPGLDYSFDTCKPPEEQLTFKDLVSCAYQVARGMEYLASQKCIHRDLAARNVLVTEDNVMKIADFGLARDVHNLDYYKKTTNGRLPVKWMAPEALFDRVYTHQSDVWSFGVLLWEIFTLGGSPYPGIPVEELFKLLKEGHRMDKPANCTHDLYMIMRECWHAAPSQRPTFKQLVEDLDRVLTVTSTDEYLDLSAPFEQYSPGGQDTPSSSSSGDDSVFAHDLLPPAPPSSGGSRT

Chain of UniProt Q9Z2I6 (Q9Z2I6 whole entry): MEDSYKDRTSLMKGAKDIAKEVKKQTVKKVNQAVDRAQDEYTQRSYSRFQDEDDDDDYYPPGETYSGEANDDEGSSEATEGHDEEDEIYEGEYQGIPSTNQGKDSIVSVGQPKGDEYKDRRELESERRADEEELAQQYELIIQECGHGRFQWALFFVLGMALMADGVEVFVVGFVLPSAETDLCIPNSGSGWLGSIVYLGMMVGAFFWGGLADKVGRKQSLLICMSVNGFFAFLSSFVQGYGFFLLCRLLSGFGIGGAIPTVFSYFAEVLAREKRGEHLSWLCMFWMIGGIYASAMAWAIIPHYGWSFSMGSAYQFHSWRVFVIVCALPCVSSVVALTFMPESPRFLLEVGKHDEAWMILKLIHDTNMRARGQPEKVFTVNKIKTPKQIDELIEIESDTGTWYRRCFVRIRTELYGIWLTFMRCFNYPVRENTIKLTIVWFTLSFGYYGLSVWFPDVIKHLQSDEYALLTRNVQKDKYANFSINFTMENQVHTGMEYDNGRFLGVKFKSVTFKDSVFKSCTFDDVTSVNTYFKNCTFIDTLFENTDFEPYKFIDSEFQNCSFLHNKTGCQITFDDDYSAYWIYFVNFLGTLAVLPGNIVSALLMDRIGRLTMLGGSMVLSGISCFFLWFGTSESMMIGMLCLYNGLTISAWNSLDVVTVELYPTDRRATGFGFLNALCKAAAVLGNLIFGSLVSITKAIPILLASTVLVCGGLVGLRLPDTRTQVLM

On to BoNT/A (from UniProt P0DPI1), for which the Kd with SV2 is 100 nM; in the series with FGFR3 (Homo sapiens), 15 nM.
